± gives the standard deviation of the averaged measurements.
Columns and labels:
Saccharomyces cerevisiae [1] = assay: protein stability index of tFT-peptide fusion (C-terminal peptide) (PSI (0-1 scale)); higher = more stable (slower turnover)
Experimental: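 MPS profiling in S. cerevisiae of the tFT-X12 degron library: putative degron peptides plus stable controls, 12 aa, fused to the C-terminus of a sfGFP-mCherry timer. Cells are FACS-sorted into 8 mCherry/sfGFP bins and deep-sequenced. PSI runs from 0 (unstable) to 1 (stable). Backgrounds are wild type, das1Δ and doa10Δ at 30 °C, and wild type, das1Δ, cdc34-1 and cdc53-1 at 37 °C; 2-3 technical replicates each.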

Saccharomyces cerevisiae [2] = assay: as above; settings: genetic background: wild type; temperature: 30 C
[3] = genetic background: cdc34-1, temperature: 37 C
[4] = genetic background: cdc53-1, temperature: 37 C
[5] = genetic background: das1 deletion, temperature: 30 C
[6] = genetic background: das1 deletion, temperature: 37 C
[7] = genetic background: doa10 deletion, temperature: 30 C
[8] = genetic background: wild type, temperature: 30 C
[9] = genetic background: wild type, temperature: 37 C
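Also: PSI is a weighted mean of sequencing reads over stability bins, variants kept only with over 10 reads, mCherry proximal and sfGFP distal, peptide attached via GGGS linker.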

Sequence | protein stability index (Saccharomyces cerevisiae [1]; [3]) | protein stability index (Saccharomyces cerevisiae [1]; [4]) | protein stability index (Saccharomyces cerevisiae [1]; [5]) | protein stability index (Saccharomyces cerevisiae [1]; [6]) | protein stability index (Saccharomyces cerevisiae [1]; [7]) | protein stability index (Saccharomyces cerevisiae [1]; [8]) | protein stability index (Saccharomyces cerevisiae [1]; [9]) | protein stability index (Saccharomyces cerevisiae [2])
RVGYSIIIIGIE | 0.351 ± 0.026 | 0.433 ± 0.087 | 0.312 ± 0.042 | 0.48295 ± 0.00022 | 0.244 ± 0.0084 | 0.303 ± 0.019 | 0.457 ± 0.029 | 0.354 ± 0.0038
RVWIVCYHVSSY | 0.214 ± 0.016 | 0.3264 ± 0.00073 | 0.204 ± 0.024 | 0.371 ± 0.011 | 0.196 ± 0.0097 | 0.207 ± 0.0069 | 0.349 ± 0.022 | 0.262 ± 0.076
RWSEHGFLVFLS | 0.643 ± 0.022 | 0.736 ± 0.012 | 0.664 ± 0.016 | 0.7408 ± 0.0018 | 0.156 ± 0.015 | 0.158 ± 0.015 | 0.373 ± 0.04 | 0.301 ± 0.021
SARSYLTERLLA | 0.6255 ± 0.0024 | 0.714 ± 0.016 | 0.599 ± 0.021 | 0.721 ± 0.022 | 0.13 ± 0.018 | 0.162 ± 0.022 | 0.239 ± 0.0068 | 0.252 ± 0.0087
SASPFYLPPPPV | 0.709 ± 0.024 | 0.7371 ± 0.0058 | 0.679 ± 0.043 | 0.735 ± 0.017 | 0.675 ± 0.018 | 0.671 ± 0.023 | 0.731 ± 0.012 | 0.735 ± 0.024
SAVLFLLFVYVR | 0.0536 ± 0.0084 | 0.081 ± 0.012 | 0.156 ± 0.026 | 0.234 ± 0.011 | 0.1678 ± 0.00051 | 0.14 ± 0.046 | 0.176 ± 0.023 | 0.254 ± 0.0093
SCIFVSSYFFVF | 0.417 ± 0.0029 | 0.465 ± 0.057 | 0.364 ± 0.025 | 0.506 ± 0.012 | 0.179 ± 0.0043 | 0.18 ± 0.02 | 0.307 ± 0.00077 | 0.251 ± 0.02
SCLRVYFSVVVS | 0.231 ± 0.013 | 0.295 ± 0.048 | 0.286 ± 0.037 | 0.389 ± 0.015 | 0.258 ± 0.0076 | 0.288 ± 0.017 | 0.36 ± 0.027 | 0.359 ± 0.031
SCLSLALLVFFG | 0.442 ± 0.014 | 0.524 ± 0.031 | 0.36 ± 0.019 | 0.523 ± 0.014 | 0.315 ± 0.0051 | 0.349 ± 0.02 | 0.515 ± 0.039 | 0.411 ± 0.061
SFFFSFFPYFFC | 0.6386 ± 0.0014 | 0.675 ± 0.02 | 0.606 ± 0.06 | 0.732 ± 0.023 | 0.401 ± 0.012 | 0.394 ± 0.017 | 0.561 ± 0.015 | 0.4425 ± 0.0029
SFTVFVVLLFPP | 0.311 ± 0.021 | 0.437 ± 0.05 | 0.284 ± 0.032 | 0.476 ± 0.024 | 0.288 ± 0.013 | 0.304 ± 0.0095 | 0.4293 ± 0.00063 | 0.323 ± 0.062
SFVGCWFVLLVR | 0.0307 ± 0.0085 | 0.0395 ± 0.0077 | 0.138 ± 0.024 | 0.235 ± 0.003 | 0.193 ± 0.0003 | 0.122 ± 0.025 | 0.159 ± 0.0049 | 0.179 ± 0.036
SFWLFSSIGVCF | 0.594 ± 0.035 | 0.5958 ± 0.004 | 0.461 ± 0.031 | 0.578 ± 0.017 | 0.4316 ± 0.00081 | 0.465 ± 0.011 | 0.5772 ± 0.0052 | 0.512 ± 0.019
SGMLVYFGTVCY | 0.502 ± 0.0077 | 0.599 ± 0.13 | 0.341 ± 0.03 | 0.577 ± 0.014 | 0.318 ± 0.028 | 0.357 ± 0.0091 | 0.511 ± 0.027 | 0.4498 ± 0.0028
SKSRKTGWMLIS | 0.622 ± 0.055 | 0.743 ± 0.029 | 0.632 ± 0.033 | 0.74 ± 0.013 | 0.156 ± 0.014 | 0.164 ± 0.033 | 0.427 ± 0.022 | 0.153 ± 0.015
SLFSPPVLATPS | 0.668 ± 0.031 | 0.7094 ± 0.0039 | 0.572 ± 0.018 | 0.705 ± 0.011 | 0.556 ± 0.02 | 0.569 ± 0.022 | 0.6797 ± 0.0026 | 0.0217 ± 0.0033
SLGHIGFWRFAG | 0.554 ± 0.0087 | 0.709 ± 0.0081 | 0.66 ± 0.009 | 0.77 ± 0.011 | 0.103 ± 0.018 | 0.108 ± 0.013 | 0.169 ± 0.0063 | 0.191 ± 0.011
SLLFVFVSVGCI | 0.0483 ± 0.0074 | 0.147 ± 0.0097 | 0.148 ± 0.03 | 0.246 ± 0.035 | 0.116 ± 0.0038 | 0.148 ± 0.025 | 0.166 ± 0.023 | 0.253 ± 0.016
SLRSLYLLARLS | 0.518 ± 0.061 | 0.689 ± 0.047 | 0.636 ± 0.033 | 0.732 ± 0.012 | 0.076 ± 0.017 | 0.0777 ± 0.024 | 0.0971 ± 0.015 | 0.194 ± 0.021
SLSPVFVAVWFL | 0.466 ± 0.012 | 0.4933 ± 0.0015 | 0.383 ± 0.057 | 0.537 ± 0.01 | 0.323 ± 0.0075 | 0.331 ± 0.016 | 0.474 ± 0.026 | 0.432 ± 0.013
